Source: publication PMC4783357

Test system: T1, His-OsWOX3A (Oryza sativa), ORF:198cabac
T1 sequence: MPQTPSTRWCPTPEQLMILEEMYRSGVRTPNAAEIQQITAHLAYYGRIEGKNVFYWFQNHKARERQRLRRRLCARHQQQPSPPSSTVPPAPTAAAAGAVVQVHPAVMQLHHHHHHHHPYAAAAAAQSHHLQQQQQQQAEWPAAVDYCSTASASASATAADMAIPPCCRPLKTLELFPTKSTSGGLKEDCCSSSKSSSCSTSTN
Assay: EMSA
Details: 10 mM Tris pH 7.5, 50 mM KCl, 1 mM DTT (from 10x buffer) plus about 50 mM KCl, 5 mM MgCl2, 10 mM EDTA, 2.5% glycerol, 0.05% NP-40, 50 ng/ul poly(dG-dC); room …

For “TACAAAACTCACTACTAGTAATTAAGTGTTGAGGGTTCGAGAACAAATTAATTAATCGCCAAATAATGCATCACAAACATCATCAACCTAGTTATCGGTT (double strand) [KAO-W1]”, the binding was “binds”.
